The target of this assay is T1, EGF receptor on human A431 cancer cells (human, UniProt P00533 25-1210).
T1 construct: whole, on cells; also called epidermal growth factor receptor; ErbB1
The assay is described as follows: competition assay on A431 cells, Mab425 fixed at 6.67 nM as competitor, Peptabody EGF 0.1 to 200 nM.

The source of these data is US20060233808A1 (published 2006).

B1: Peptabody EGF (designed binder)
chain: MYSFEDLASHHHHHHGDLGPQMLRELQETNAALQDVRDYLRQLVREITFLKNTVMECDACGMQQTSPPTPPTPSPSTPPTPSPRSNSDSECPLSHDGYCLHDGVCMYIEALDKYACNCVVGYIGERCQYRDLKWWELR
notes: also called p-EGF; P-EGF
For the molecule B1, the binding result is reported as “binds”.
